Laboratory results as given in article doi:10.1101/2022.12.23.521728 (bioRxiv, 2022).

Biological target: ATP synthase F1 α subunit of G. stearothermophilus FoF1 (G. stearothermophilus, UniProt P09219 1-502)
Experiment: cryo-EM structure

Chain of ATP synthase F1 α subunit of G. stearothermophilus FoF1 (P09219 whole entry): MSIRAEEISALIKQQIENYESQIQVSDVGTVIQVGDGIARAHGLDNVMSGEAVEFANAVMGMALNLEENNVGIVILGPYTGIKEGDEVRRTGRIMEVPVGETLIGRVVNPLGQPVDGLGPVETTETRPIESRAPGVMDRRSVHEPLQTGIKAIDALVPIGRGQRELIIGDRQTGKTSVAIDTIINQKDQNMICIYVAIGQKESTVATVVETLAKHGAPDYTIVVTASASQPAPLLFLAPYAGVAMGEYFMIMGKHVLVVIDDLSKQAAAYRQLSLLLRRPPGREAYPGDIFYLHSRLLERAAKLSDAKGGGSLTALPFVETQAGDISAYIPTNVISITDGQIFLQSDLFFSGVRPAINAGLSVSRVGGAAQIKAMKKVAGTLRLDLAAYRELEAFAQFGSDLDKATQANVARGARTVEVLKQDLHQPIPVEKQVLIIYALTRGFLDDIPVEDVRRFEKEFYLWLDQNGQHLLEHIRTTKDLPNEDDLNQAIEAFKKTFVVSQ

B1: ATP synthase F1 γ subunit of G. stearothermophilus FoF1 (natural protein)
chain: ASLRDIKTRINATKKTSQITKAMEMVLTSKLNRAEKREIVRPYMEKIQEVVANVALAARASHPMLVSRPVKKTGYLVITSDRGLAGAYNSNVLRLVYQTIQKRHASPDEYAIIVIGRVGLSFFRKRNMPVILDITRLPDQPSFADIKEIARKTVGLFADGTFDELYMYYNHYVSAIQQEVTERKLLPLTDLAENKQRTVYEFEPSQEEILDVLLPQYAESLIYGALLDAKASEHAARMTAMKNATDNANELIRTLTLSYNRARQAAITQEITEIVAGANALQ
B1: binds.
